2 molecules from article PMC2627783 can be followed below.

The target in this assay is HscA (UniProt P0A6Z1).
Chain of HscA (P0A6Z1 whole entry): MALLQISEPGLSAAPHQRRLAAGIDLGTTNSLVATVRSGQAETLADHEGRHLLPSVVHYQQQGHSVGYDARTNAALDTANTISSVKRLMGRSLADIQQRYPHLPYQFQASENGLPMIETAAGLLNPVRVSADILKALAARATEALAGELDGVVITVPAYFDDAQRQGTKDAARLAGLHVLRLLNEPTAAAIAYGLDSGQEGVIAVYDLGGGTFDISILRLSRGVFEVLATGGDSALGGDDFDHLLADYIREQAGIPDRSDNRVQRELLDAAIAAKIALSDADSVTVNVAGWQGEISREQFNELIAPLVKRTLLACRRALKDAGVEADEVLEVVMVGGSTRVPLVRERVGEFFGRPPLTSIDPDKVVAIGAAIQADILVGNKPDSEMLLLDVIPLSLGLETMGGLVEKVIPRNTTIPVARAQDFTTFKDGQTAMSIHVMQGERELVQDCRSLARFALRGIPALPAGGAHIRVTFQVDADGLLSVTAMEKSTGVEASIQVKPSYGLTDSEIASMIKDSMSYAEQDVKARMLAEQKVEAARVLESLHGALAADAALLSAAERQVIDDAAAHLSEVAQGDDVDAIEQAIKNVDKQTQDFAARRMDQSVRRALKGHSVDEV

B1: HscB(E97A,E100A,E104A) (natural protein)
chain: MDYFTLFGLPARYQLDTQALSLRFQDLQRQYHPDKFASGSQAEQLAAVQQSATINQAWQTLRHPLMRAEYLLSLHGFDLASEQHTVRDTAFLMEQLALRAELDAIEQAKDEARLESFIKRVKKMFDTRHQLMVEQLDNETWDAAADTVRKLRFLDKLRSSAEQLEEKLLDF
Regarding B1, the HscA ATPase activity, 23 °C, in the absence of IscU: maximal stimulation is 4.3 fold.

B2: HscB(L92A,M93A,F153A) (natural protein)
chain: MDYFTLFGLPARYQLDTQALSLRFQDLQRQYHPDKFASGSQAEQLAAVQQSATINQAWQTLRHPLMRAEYLLSLHGFDLASEQHTVRDTAFAAEQLELREELDEIEQAKDEARLESFIKRVKKMFDTRHQLMVEQLDNETWDAAADTVRKLRALDKLRSSAEQLEEKLLDF
Turning to B2, the HscA ATPase activity, 23 °C, in the absence of IscU: maximal stimulation came out at 3.8 fold.
